Results: article PMC7722741, “The bacterial multidrug resistance regulator BmrR distorts promoter DNA to activate transcription”

Target: BmrR;RNAP-sigmaA holoenzyme (Bacillus subtilis;Bacillus subtilis, UniProt P39075;P20429;P37870;P37871;O35011;O31718;P06224 …, |)
Assay: EMSA; TPP 500 uM; heparin challenge; stable open complex stated in peer review file; EMSA: 10 mM HEPES pH 7.5, 100 mM KCl, 5 mM MgCl2, 3 mM DTT, 1 h room temperature, 0.75 uM RNAP, 0.5 uM DNA, 0 or 2 uM BmrR, 0 or 500 uM TPP, heparin 100 ug/ml when indicated; 5% TBE gel
Conditions: protein: recombinant;native; tags: ;; chain copies: 2;2;1;1;1;1;1

B1: Pbmr-2 (mixed)
DNA 1: TTTAGAAAGATTTTGCAAATCCGTTGACTCTCCCCTAGGAGGAGGTCTTATAATGGGAGCTGTCACGGATGC
DNA 2: GCATCCGTGACAGCTCCCATTATAAGACCTCCTCCTAGGGGAGAGTCAACGGATTTGCAAAATCTTTCTAAA
- binding result: binds

B2: Pbmr-wt1 (dsDNA)
DNA 1: TTTAGAAAGATTTTGCAAATCCGTTGACTCTCCCCTAGGAGGAGGTCTTACAGTATAAGGGATACACACTTG
DNA 2: CAAGTGTGTATCCCTTATACTGTAAGACCTCCTCCTAGGGGAGAGTCAACGGATTTGCAAAATCTTTCTAAA
- binding result: binds
